Experimental data: the supplement of paper PMC9112550, “Optimization of the antimicrobial peptide Bac7 by deep mutational scanning” (BMC Biology, 2022)

tested on: Escherichia coli TOP10; experiment: shrunken log2 fold change of peptide-encoding DNA abundance (4.5 h post-induction vs induction); higher = less antimicrobial activity (less host growth inhibition); details: time post-induction: 4.5 h; library: site-saturation at positions 5, 18, 19, 20
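Further: peptides expressed intracellularly from a pBAD plasmid library in pooled LB shake-flask culture, induced with 0.3% L-arabinose, DNA abundance read by NGS, three biological replicates, DESeq2 with apeglm shrinkage.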

| Sequence | shrunken log2 fold change |
| --- | --- |
| RRIRSRPPRLPRPRPRPFGFPRP | -0.137 |
| RRIRGRPPRLPRPRPRPREFPRP | 1.07 |
| RRIRSRPPRLPRPRPRPLHFPRP | -0.17 |
| RRIRDRPPRLPRPRPRPPWLPRP | 0.296 |
| RRIRMRPPRLPRPRPRPPLVPRP | 0.36 |
| RRIRDRPPRLPRPRPRPGLMPRP | -0.152 |
| RRIRRRPPRLPRPRPRPYEMPRP | -0.0957 |
| RRIRERPPRLPRPRPRPEVCPRP | -0.0484 |
| RRIRHRPPRLPRPRPRPVRCPRP | 0.592 |
| RRIRTRPPRLPRPRPRPADSPRP | 0.0603 |
| RRIRTRPPRLPRPRPRPAYDPRP | -0.251 |
| RRIRRRPPRLPRPRPRPMSAPRP | 0.128 |
| RRIRKRPPRLPRPRPRPAGGPRP | 0.435 |
| RRIRDRPPRLPRPRPRPERCPRP | 0.426 |
| RRIRIRPPRLPRPRPRPYGSPRP | -0.126 |
| RRIRGRPPRLPRPRPRPAMEPRP | 1 |
| RRIRGRPPRLPRPRPRPWLCPRP | 0.266 |
| RRIRHRPPRLPRPRPRPEIWPRP | -0.0396 |
| RRIRVRPPRLPRPRPRPWIKPRP | 0.0141 |
| RRIRRRPPRLPRPRPRPGADPRP | 0.725 |
| RRIRTRPPRLPRPRPRPPDCPRP | 0.0461 |
| RRIRYRPPRLPRPRPRPAMKPRP | -0.000923 |
| RRIRMRPPRLPRPRPRPNTQPRP | 0.0014 |

| Sequence | shrunken log2 fold change |
| --- | --- |
| RRIRVRPPRLPRPRPRPLRAPRP | 0.719 |
| RRIRSRPPRLPRPRPRPNVMPRP | -0.204 |
| RRIRGRPPRLPRPRPRPLMSPRP | 0.271 |
| RRIRVRPPRLPRPRPRPWFWPRP | 0.121 |
| RRIRDRPPRLPRPRPRPGRQPRP | 0.0393 |
| RRIRIRPPRLPRPRPRPKMWPRP | 1.25 |
| RRIRCRPPRLPRPRPRPFNRPRP | -0.466 |
| RRIRMRPPRLPRPRPRPQTQPRP | 2.46 |
| RRIRHRPPRLPRPRPRPAGEPRP | -0.0717 |
| RRIRIRPPRLPRPRPRPLFRPRP | -0.429 |
| RRIRERPPRLPRPRPRPSGWPRP | -0.0693 |
| RRIRPRPPRLPRPRPRPDAAPRP | 0.721 |
| RRIRKRPPRLPRPRPRPKQRPRP | 0.393 |
| RRIRDRPPRLPRPRPRPINMPRP | 0.00272 |
| RRIRSRPPRLPRPRPRPAWLPRP | 0.534 |
| RRIRPRPPRLPRPRPRPDWEPRP | 0.19 |
| RRIRFRPPRLPRPRPRPNEMPRP | -0.0729 |
| RRIRKRPPRLPRPRPRPFVEPRP | 0.0241 |
| RRIRERPPRLPRPRPRPAHQPRP | -0.136 |
| RRIRWRPPRLPRPRPRPYNKPRP | -1.34 |
| RRIRHRPPRLPRPRPRPWGNPRP | -0.0654 |
| RRIRVRPPRLPRPRPRPNYWPRP | -0.307 |
| RRIRLRPPRLPRPRPRPKTLPRP | -0.0582 |

| Sequence | shrunken log2 fold change |
| --- | --- |
| RRIRVRPPRLPRPRPRPMNPPRP | -0.421 |
| RRIRTRPPRLPRPRPRPMCTPRP | -0.0211 |
| RRIRHRPPRLPRPRPRPQRTPRP | -0.145 |
| RRIRGRPPRLPRPRPRPNEQPRP | -0.0722 |
| RRIRWRPPRLPRPRPRPFHDPRP | -0.285 |
| RRIRHRPPRLPRPRPRPHEYPRP | -0.293 |
| RRIRLRPPRLPRPRPRPVFDPRP | -0.251 |
| RRIRVRPPRLPRPRPRPWVRPRP | 0.0573 |
| RRIRIRPPRLPRPRPRPCRFPRP | -0.0104 |
| RRIRMRPPRLPRPRPRPGNDPRP | 1.19 |
| RRIRWRPPRLPRPRPRPSRAPRP | 0.397 |
| RRIRDRPPRLPRPRPRPSCNPRP | -0.493 |
| RRIRLRPPRLPRPRPRPEFVPRP | 0.0203 |
| RRIRTRPPRLPRPRPRPYTNPRP | -0.0771 |
| RRIRNRPPRLPRPRPRPPSCPRP | -0.134 |
| RRIRCRPPRLPRPRPRPKQGPRP | 0.261 |
| RRIRSRPPRLPRPRPRPGWPPRP | 0.692 |
| RRIRTRPPRLPRPRPRPTSMPRP | 0.308 |
| RRIRPRPPRLPRPRPRPGFPPRP | 0.355 |
| RRIRLRPPRLPRPRPRPSPYPRP | -0.674 |
| RRIRERPPRLPRPRPRPQALPRP | -0.378 |
| RRIRIRPPRLPRPRPRPHKIPRP | -0.462 |
| RRIRSRPPRLPRPRPRPYEGPRP | -0.213 |

| Sequence | shrunken log2 fold change |
| --- | --- |
| RRIRGRPPRLPRPRPRPEGIPRP | -0.0235 |
| RRIRYRPPRLPRPRPRPDDQPRP | -0.0136 |
| RRIRIRPPRLPRPRPRPVMKPRP | 0.012 |
| RRIRARPPRLPRPRPRPIDYPRP | -0.228 |
| RRIRVRPPRLPRPRPRPERGPRP | 0.416 |
| RRIRVRPPRLPRPRPRPKQNPRP | 0.385 |
| RRIRKRPPRLPRPRPRPQGMPRP | -0.027 |
| RRIRSRPPRLPRPRPRPYFRPRP | -0.853 |
| RRIRLRPPRLPRPRPRPVQNPRP | 0.0224 |
| RRIRERPPRLPRPRPRPCRHPRP | -0.00171 |
| RRIRHRPPRLPRPRPRPNSHPRP | -1.09 |
| RRIRVRPPRLPRPRPRPCWQPRP | -0.0523 |
| RRIRVRPPRLPRPRPRPTMWPRP | 0.267 |
| RRIRERPPRLPRPRPRPNEDPRP | -0.151 |
| RRIRQRPPRLPRPRPRPEGVPRP | 0.381 |
| RRIRNRPPRLPRPRPRPGDWPRP | 2.87 |
| RRIRNRPPRLPRPRPRPIQAPRP | -0.0922 |
| RRIRPRPPRLPRPRPRPVIVPRP | -0.212 |
| RRIRCRPPRLPRPRPRPVPTPRP | 0.116 |
| RRIRERPPRLPRPRPRPNKNPRP | 0.0755 |
| RRIRNRPPRLPRPRPRPLASPRP | -0.196 |
| RRIRTRPPRLPRPRPRPNWHPRP | -0.0773 |
